For five molecules, SPOT intensity results are on record in paper PMC2756588.

Experiment in all cases: SPOT array
For one assay, the target named is T1, Lsb4, P32793.
T1 sequence (P32793 402-468, looked up): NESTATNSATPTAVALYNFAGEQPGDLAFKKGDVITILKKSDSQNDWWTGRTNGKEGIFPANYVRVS
The note with it: median of control spots 397.

The target of the next assay is T2, Cdc25, P04821.
T2 sequence (P04821 50-136, looked up): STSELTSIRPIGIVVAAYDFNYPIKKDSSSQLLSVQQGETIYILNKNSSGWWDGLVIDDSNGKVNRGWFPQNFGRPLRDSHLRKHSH
As to conditions: median of control spots 969.

The target of another assay is T3, Pin3, Q06449.
T3 sequence (Q06449 53-122, looked up): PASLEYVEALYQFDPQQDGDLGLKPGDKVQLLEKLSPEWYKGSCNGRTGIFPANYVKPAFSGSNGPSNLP
As to conditions: median of control spots 2171.

A further assay has as its target T4, Sla1-3, P32790.
T4 sequence (P32790 344-424, looked up): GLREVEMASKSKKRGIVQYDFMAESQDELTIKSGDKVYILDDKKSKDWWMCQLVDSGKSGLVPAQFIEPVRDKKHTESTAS
As to conditions: median of control spots 5475.

A further assay concerns the target T5, Bzz1-2, P38822.
T5 sequence (P38822 568-633, looked up): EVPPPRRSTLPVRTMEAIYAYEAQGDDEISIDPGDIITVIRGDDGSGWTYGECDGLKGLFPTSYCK
The note with it: median of control spots 4538.

A further assay addresses T6, Hse1, P38753.
T6 sequence (P38753 208-285, looked up): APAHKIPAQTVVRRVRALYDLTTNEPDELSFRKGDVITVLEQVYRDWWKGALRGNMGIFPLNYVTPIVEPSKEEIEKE
The note with it: median of control spots 1727.

For another assay, the target named is T7, Hof1, Q05080.
T7 sequence (Q05080 590-669, looked up): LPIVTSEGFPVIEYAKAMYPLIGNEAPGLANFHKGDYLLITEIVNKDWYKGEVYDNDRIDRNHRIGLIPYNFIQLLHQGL
The note with it: median of control spots 4086.

The next assay addresses Sho1, P40073. As to conditions: median of control spots 1148.
The next assay concerns the target T8, Myo5, Q04439.
T8 sequence (Q04439 1072-1160, looked up): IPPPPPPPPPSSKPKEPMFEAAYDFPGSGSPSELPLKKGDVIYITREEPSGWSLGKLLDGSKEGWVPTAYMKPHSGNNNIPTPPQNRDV
As to conditions: median of control spots 471.

A further assay deals with T9, Bud14, P27637.
T9 sequence (P27637 247-328, looked up): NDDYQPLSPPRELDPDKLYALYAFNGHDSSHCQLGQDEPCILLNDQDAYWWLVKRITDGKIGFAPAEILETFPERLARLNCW
As to conditions: median of control spots 956.

A further assay deals with Bem1-2, P29366. The note with it: median of control spots 4347.
For another assay, the target named is T10, Nbp2, Q12163.
T10 sequence (Q12163 103-180, looked up): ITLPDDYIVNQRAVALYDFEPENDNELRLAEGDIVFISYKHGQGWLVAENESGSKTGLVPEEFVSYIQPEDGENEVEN
As to conditions: median of control spots 357.

A further assay concerns the target T11, Bbc1, P47068.
T11 sequence (P47068 1-78, looked up): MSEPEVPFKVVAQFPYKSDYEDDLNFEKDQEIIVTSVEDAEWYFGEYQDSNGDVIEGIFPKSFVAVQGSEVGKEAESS
As to conditions: median of control spots 796.

In the next assay the target is T12, Cyk3, Q07533.
T12 sequence (Q07533 1-83, looked up): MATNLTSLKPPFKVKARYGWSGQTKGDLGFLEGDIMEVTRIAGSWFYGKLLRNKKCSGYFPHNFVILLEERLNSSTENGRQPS
The note with it: median of control spots 1451.

The target in another assay is T13, Fus1, P11710.
T13 sequence (P11710 432-512, looked up): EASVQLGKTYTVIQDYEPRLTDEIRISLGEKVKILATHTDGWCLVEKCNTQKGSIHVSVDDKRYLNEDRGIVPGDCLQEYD
The note with it: median of control spots 1200.

For the next assay, the target named is T14, Boi1, P38041.
T14 sequence (P38041 1-86, looked up): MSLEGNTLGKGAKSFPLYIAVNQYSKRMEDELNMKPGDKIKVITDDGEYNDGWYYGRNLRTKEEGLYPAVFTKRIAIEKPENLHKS
As to conditions: median of control spots 1162.

In another assay the target is Bem1-1, P29366. As to conditions: median of control spots 4282.
A further assay has as its target T15, Boi2, P39969.
T15 sequence (P39969 32-116, looked up): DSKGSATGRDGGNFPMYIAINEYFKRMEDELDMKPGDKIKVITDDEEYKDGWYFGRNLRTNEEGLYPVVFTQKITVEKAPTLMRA
As to conditions: median of control spots 1161.

In another assay the target is T16, Sla1-2, P32790.
T16 sequence (P32790 60-140, looked up): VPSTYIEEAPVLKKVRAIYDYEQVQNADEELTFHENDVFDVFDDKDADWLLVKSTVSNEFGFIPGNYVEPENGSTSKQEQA
As to conditions: median of control spots 712.

The target of a further assay is T17, Pex13, P80667.
T17 sequence (P80667 295-386, looked up): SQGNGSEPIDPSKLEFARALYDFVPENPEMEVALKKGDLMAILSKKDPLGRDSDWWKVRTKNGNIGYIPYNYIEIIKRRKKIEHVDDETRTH
The note with it: median of control spots 1341.

The target in the next assay is T18, Abp1, P15891.
T18 sequence (P15891 535-592, looked up): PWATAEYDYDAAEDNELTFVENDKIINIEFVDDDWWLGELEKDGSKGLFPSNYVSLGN
The note with it: median of control spots 935.

A further assay deals with Myo3, P36006. As to conditions: median of control spots 468.
In a further assay the target is Rvs167, P39743. The note with it: median of control spots 2707.
In a further assay the target is T19, Lsb1, P53281.
T19 sequence (P53281 45-122, looked up): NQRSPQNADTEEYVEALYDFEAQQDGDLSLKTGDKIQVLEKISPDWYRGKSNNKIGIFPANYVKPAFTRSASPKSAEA
As to conditions: median of control spots 388.

The target in a further assay is T20, Lsb3, P43603.
T20 sequence (P43603 385-451, looked up): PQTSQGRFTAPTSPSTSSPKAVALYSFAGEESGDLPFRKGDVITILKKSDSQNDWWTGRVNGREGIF
The note with it: median of control spots 406.

A further assay addresses GST. As to conditions: median of control spots 978.
In the next assay the target is T21, Bzz1-1, P38822.
T21 sequence (P38822 478-572, looked up): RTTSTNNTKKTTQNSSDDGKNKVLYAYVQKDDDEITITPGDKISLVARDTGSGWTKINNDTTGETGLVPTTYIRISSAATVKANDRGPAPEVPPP
The note with it: median of control spots 4446.

Values joined by “and” are separate entries in the source; they are usually repeats but may differ in a detail not shown here. Identical values can stand only once.

Chain of Bem1-2, P29366 (P29366 139-227): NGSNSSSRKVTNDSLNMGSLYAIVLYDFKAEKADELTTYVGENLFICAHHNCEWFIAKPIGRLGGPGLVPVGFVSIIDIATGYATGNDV
Chain of Rvs167, P39743 (P39743 419-482): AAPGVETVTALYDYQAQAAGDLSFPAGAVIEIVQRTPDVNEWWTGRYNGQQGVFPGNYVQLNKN
Chain of Sho1, P40073 (P40073 287-367): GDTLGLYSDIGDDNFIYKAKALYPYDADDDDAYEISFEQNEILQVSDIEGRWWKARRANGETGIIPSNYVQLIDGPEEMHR
Chain of Bem1-1, P29366 (P29366 55-141): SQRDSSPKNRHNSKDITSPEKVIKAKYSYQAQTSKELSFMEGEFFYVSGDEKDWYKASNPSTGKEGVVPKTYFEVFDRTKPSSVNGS

Take RHLKNIPRIPIFSIL: the SPOT intensity with Lsb4, P32793 is 4 and 7; in the assay with Cdc25, P04821, 230 and 113; in the assay with Pin3, Q06449, 84; with Sla1-3, P32790 it was 992 and 402; with Bzz1-2, P38822, 394 and 164; with Hse1, P38753, 307 and 687. Moreover, the SPOT intensity with Hof1, Q05080 is 5560 and 3670; with Sho1, P40073, 160 and 101; with Myo5, Q04439, 5 and 3; with Bud14, P27637 it was 16 and 18; in the assay with Bem1-2, P29366, 4830 and 2260; in the assay with Nbp2, Q12163, 184 and 63. Further, the SPOT intensity is 25 and 23 with Bbc1, P47068; 1 and 3 with Cyk3, Q07533; 1870 and 1460 with Fus1, P11710; 14 and 10 with Boi1, P38041; 823 and 2170 with Bem1-1, P29366; 3 and 1 in the assay with Boi2, P39969. Moreover, the SPOT intensity with Sla1-2, P32790 was 0; in the assay with Pex13, P80667 it was 163 and 113; in the assay with Abp1, P15891, 49 and 31; in the assay with Myo3, P36006 it was 14 and 19.

Regarding GPPPPLPPPLFPSSS, the SPOT intensity in the assay with Lsb4, P32793 amounted to 10; in the assay with Cdc25, P04821 it was 0; with Pin3, Q06449, 0; with Sla1-3, P32790, 0; with Rvs167, P39743 it was 0; with Bzz1-2, P38822 it was 0. For the same molecule, the SPOT intensity in the assay with Lsb1, P53281 was 64; with Hse1, P38753 it was 0; in the assay with Hof1, Q05080 it was 1690; with Lsb3, P43603, 0; in the assay with Sho1, P40073 it was 0; in the assay with Myo5, Q04439, 362. The SPOT intensity worked out at 0 in the assay with Bud14, P27637; 0 in the assay with Bem1-2, P29366; 0 in the assay with Nbp2, Q12163; 0 with Bbc1, P47068; 0 in the assay with Cyk3, Q07533; 0 in the assay with Fus1, P11710. For the same molecule, the SPOT intensity with Boi1, P38041 was 0; with Bem1-1, P29366, 0; with Boi2, P39969, 0; with Sla1-2, P32790, 0; in the assay with GST it was 0; with Pex13, P80667, 725. For the same molecule, the SPOT intensity with Abp1, P15891 was 6; with Myo3, P36006, 575; with Bzz1-1, P38822, 0.

Turning to VSKLRSPNTPRRLRK, the SPOT intensity was 206 and 92 in the assay with Lsb4, P32793; 55 and 39 in the assay with Cdc25, P04821; 5 and 3 with Pin3, Q06449; 9 and 7 with Sla1-3, P32790; 72 and 49 with Lsb3, P43603; 267 and 126 with Sho1, P40073. Also, the SPOT intensity with Bud14, P27637 was 6; in the assay with Nbp2, Q12163, 0; in the assay with Bbc1, P47068 it was 223 and 226; in the assay with Cyk3, Q07533, 2 and 1; with Boi1, P38041, 8 and 4; with Bem1-1, P29366, 1 and 3. Moreover, the SPOT intensity with Sla1-2, P32790 was 0; with GST it was 3 and 1; in the assay with Pex13, P80667, 3 and 1; in the assay with Abp1, P15891, 216 and 273; in the assay with Myo3, P36006, 8 and 6; with Bzz1-1, P38822, 0.

As for LKPPIGRPPKFPKSP, the SPOT intensity with Lsb4, P32793 came to 0; with Cdc25, P04821 it was 0; in the assay with Pin3, Q06449 it was 0; with Sla1-3, P32790, 0; with Rvs167, P39743, 0; with Bzz1-2, P38822 it was 0. Besides, the SPOT intensity was 0 in the assay with Lsb1, P53281; 1 with Hse1, P38753; 0 with Hof1, Q05080; 3 with Lsb3, P43603; 24 in the assay with Sho1, P40073; 117 with Myo5, Q04439. For the same molecule, the SPOT intensity was 0 with Bud14, P27637; 0 with Bem1-2, P29366; 0 in the assay with Nbp2, Q12163; 18 in the assay with Bbc1, P47068; 0 in the assay with Cyk3, Q07533; 0 with Fus1, P11710. For the same molecule, the SPOT intensity turned out to be 3 with Boi1, P38041; 0 with Bem1-1, P29366; 0 with Boi2, P39969; 0 with Sla1-2, P32790; 0 with GST; 4 in the assay with Pex13, P80667. Moreover, the SPOT intensity came out at 133 with Abp1, P15891; 397 in the assay with Myo3, P36006; 0 in the assay with Bzz1-1, P38822.

Turning to SPAPIVPREPLRNEP, the SPOT intensity is 114 and 89 with Lsb4, P32793; 240 and 142 in the assay with Cdc25, P04821; 721 and 289 with Pin3, Q06449; 3540 and 3050 in the assay with Sla1-3, P32790; 2590 and 3300 with Rvs167, P39743; 4030 and 3640 with Bzz1-2, P38822. Moreover, the SPOT intensity was 2790 and 3860 with Hse1, P38753; 1550 and 3190 with Hof1, Q05080; 46 and 25 in the assay with Lsb3, P43603; 138 and 78 with Sho1, P40073; 88 and 90 with Myo5, Q04439; 184 and 188 in the assay with Bud14, P27637. Further, the SPOT intensity was 2910 and 3310 with Bem1-2, P29366; 49 and 40 with Bbc1, P47068; 241 and 231 with Cyk3, Q07533; 227 and 99 with Fus1, P11710; 45 and 64 with Boi1, P38041; 3190 and 3200 with Bem1-1, P29366. Also, the SPOT intensity was 28 and 50 with Boi2, P39969; 1000 and 337 with GST; 403 and 875 in the assay with Pex13, P80667; 122 and 106 in the assay with Abp1, P15891; 122 and 104 in the assay with Myo3, P36006; 3070 and 3750 in the assay with Bzz1-1, P38822.
